From patent publication US20090263380A1 (published 2009)

Key:
[1] = target: T1, human monoclonal anti-C1 domain of Factor VIII antibody RHD5; experiment: cell-based or functional assay
[2] = target: T1, human monoclonal anti-C1 domain of …; experiment: SPR (BIAcore), RHD5 immobilized on CM5, 18B6 infused
Experimental: The binding kinetics of the anti-idiotypic antibody 18B6 to inhibitor RHD5 antibody was evaluated by use of the <<Surface plasmon resonance Biacore>> method using the Pharmacia Biosensor BIAcore (Pharmacia Biosensor AB, Uppsala, Sweden). The RHD5 antibodies were immobilized on the activated surface of a CM5 probe. The anti-idiotypic antibodies 18B6 were infused in different RHD5 concentrations immobilized on the surface of the probe. The association and dissociation constants were determined: […]

[3] = target: T1, human monoclonal anti-C1 domain of …; experiment: competition ELISA, 18B6 with RHD5 2 µg/ml, RHD5 binding to coated recFVIII
Experimental: Recombinant Factor VIII (recFVIII) (Baxter) at 2 μg/ml in a glycine buffer, 50 μl/well, was insolubilized, then left for 2 hours at room temperature. The RHD5 antibody (or an irrelevant IgG1) at 0.6 μg/ml final concentration was pre-incubated over 2 hours with the culture supernatants in a dilution 1/1, 1/2 and 1/4 in Magic Buffer. The wells were washed 3 times with a PBS/Tween buffer, then saturated with 100 μl/well of Magic Buffer (30 min at room temperature). Afterwards, the culture supernatant was incubated with 50 μl of RHD5 (or irrelevant IgG1) (2 hours at room temperature, Magic Buffer), then, 3 washings were performed. The RHD5 antibodies bound to insolubilized recFVIII were detected by addition of 50 μl/well of a mouse polyclonal human anti-IgG HRP-labelled (Southern Biotechnology) antibodies solution of 1 μg/ml in Magic Buffer. Three successive washings were carried out with PBS/Tween, then revelation carried out with a chromogen (OPD ortho-phenyl diamine) and a reading of the obtained coloration intensity with a reader having filters corresponding to wavelengths 490/650 nm (reader Emax Molecular Devithese, Sunnyvale, Calif.).
The inhibition of RHD5 antibody binding to insolubilized recombinant FVIII was measured according to the protocol described in point IV. The concentration of used RHD5 is equal to 2 μg/ml.

T1 sequence (VH, as listed by the source, chain 1 of 2): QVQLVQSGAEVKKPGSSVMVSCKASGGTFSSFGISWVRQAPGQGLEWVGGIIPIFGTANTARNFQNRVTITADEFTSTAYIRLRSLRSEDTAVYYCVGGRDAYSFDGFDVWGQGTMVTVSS
T1 sequence (VL, as listed by the source, chain 2 of 2): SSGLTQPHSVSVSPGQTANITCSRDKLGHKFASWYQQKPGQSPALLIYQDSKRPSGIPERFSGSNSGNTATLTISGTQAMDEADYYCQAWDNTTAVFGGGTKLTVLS

B1: anti-idiotypic antibody 18B6 (antibody, V domains shown)
VH: QVQLQQSGAELAKPGASVKMSCKASGYTFTTYWMHWIKQRPGQDLEWIGYINPTSGYTEYNQNFKDKATLTADKSSSTAYMQLNSLTSEDSAVYFCARSGAYYRYDDAMDSWGQGTSVTVSS
VL: QIVLSQSPAILSASPGEKVTMTCRASSSVSYMNWYQQKPGSSPKPWIYATSNLASGVPARFSGSGSGTSYSLTISRVEAEDAATYYCQQWSSNPPMLTFGAGTKLELK
notes: also called 18B6 anti-RHD5 clone
B1 was tested, and the “neutralisation of RHD5 inhibitory activity at an equimolar RHD5/18B6 ratio” value [1] was 50%, the Kd [2] was 3.4 nM and the koff [2] was 1.45e-05 s⁻¹. For the same binder, the kon [2] was 4260 M⁻¹ s⁻¹, the “inhibition of binding at an equimolar ratio (%)” value [3] was 92% and the “molar ratio RHD5/18B6 giving 50% inhibition” value [3] was 2.5 molar ratio RHD5/18B6.
